Data from patent publication US8940871 (University of California, dated 2015).
One block for each molecule: values may come before it.

Columns and labels:
[1] = target: PSCA on cells (PSCA-transfected B-cell line, LNCaP prostate cancer cells, SKW-PSCA+ cells) (human) (UniProt O43653); test: immunoreactivity of radioiodinated diabody
[2] = target: PSCA (form used in Biacore not stated) (UniProt O43653); test: Biacore, apparent affinity
purified PSCA-Fc = target: T1, purified PSCA-Fc (UniProt O43653 12-86); test: competition ELISA, wells coated with PSCA-Fc
T1 construct: The construct is described only by a literature citation; not shown: Fc part not described
T1 sequence (looked up): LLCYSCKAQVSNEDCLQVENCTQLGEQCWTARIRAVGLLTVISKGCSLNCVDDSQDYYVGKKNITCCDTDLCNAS
Procedure: To examine the structural characteristics of the 2B3 minibody, SDS-PAGE was conducted under reducing and non-reducing conditions. The minibody migrated with a MW of ~47 kDa under reducing conditions and ~95 kDa under non-reducing (FIG. 2). […] The minibody's apparent affinity with respect to its intact antibody counterpart and the original mouse monoclonal antibody (1G8), was determined by competition ELISA.
PSCA relative binding affinity for the minibodies was determined by competition ELISA in which microtiter plate wells were coated with purified PSCA-Fc (Z Gu, T. Olafsen et al. 2006).

[3] = target: T2, PSCA (form used in Biacore not stated) (UniProt O43653 12-86, limits assumed); test: Biacore, apparent affinity; parental diabody, not affinity matured
T2 construct: The antigen preparation for the Biacore measurements and for the 4-fold statement is not described; also called prostate stem cell antigen
T2 sequence (looked up): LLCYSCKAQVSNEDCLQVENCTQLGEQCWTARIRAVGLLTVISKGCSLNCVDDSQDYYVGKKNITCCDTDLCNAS

[4] = target: T2, PSCA (form used in Biacore not stated); test: method not stated; humanized antibody compared with murine 1G8

Molecule: affinity matured 2B3 anti-PSCA diabody (scFv dimer, eight amino acid linker)
immunoreactivity [1]: 22% | Kd [2]: 1.89 nM

B3: humanized 2B3 anti-PSCA antibody (intact) (antibody, V domains shown)
VH: EVQLVESGGGLVQPGGSLRLSCAASGFNIKDYYIHWVRQAPGKGLEWVAWIDPENGDTEFVPKFQGRATISADTSKNTAYLQMNSLRAEDTAVYYCKTGGFWGQGTLVTVSS
VL: DIQLTQSPSSLSASVGDRVTITCSASSSVRFIHWYQQKPGKAPKRLIYDTSKLASGVPSRFSGSGSGTDFTLTISSLQPEDFATYYCQQWSSSPFTFGQGTKVEIK
notes: Intact humanized antibody; also called intact 2B3 antibody; humanized 2B3 antibody
fold reduction in affinity (against murine 1G8) [4]: 4 fold

Results, then the molecule that gave them:

fold lower affinity than the intact 2B3 antibody (purified PSCA-Fc): ~2 fold | fold lower relative affinity than the murine antibody (1G8) (purified PSCA-Fc): 9.2 fold
B1: humanized anti-PSCA minibody (2B3 scFv-CH3 dimer) (other)
chain: DIQLTQSPSSLSASVGDRVTITCSASSSVRFIHWYQQKPGKAPKRLIYDTSKLASGVPSRFSGSGSGTDFTLTISSLQPEDFATYYCQQWSSSPFTFGQGTKVEIKGSTSGGGSGGGSGGGGSSEVQLVESGGGLVQPGGSLRLSCAASGFNIKDYYIHWVRQAPGKGLEWVAWIDPENGDTEFVPKFQGRATISADTSKNTAYLQMNSLRAEDTAVYYCKTGGFWGQGTLVTVSSEPKSCDKTHTCPPCGGGSSGGGSGGQPREPQVYTLPPSRDELTKNQVSLTCLVKGFYPSDIAVEWESNGQPENNYKTTPPVLDSDGSFFLYSKLTVDKSRWQQGNVFSCSVMHEALHNHYTQKSLSLSPGK
notes: Covalent dimer of about 95 kDa; also called 2B3 minibody; parental minibody

Kd [3]: 5.41 nM
B2: parental 2B3 anti-PSCA diabody (scFv dimer, eight amino acid linker) (scFv)
scFv: DIQLTQSPSSLSASVGDRVTITCSASSSVRFIHWYQQKPGKAPKRLIYDTSKLASGVPSRFSGSGSGTDFTLTISSLQPEDFATYYCQQWSSSPFTFGQGTKVEIKGGGSGGGSEVQLVESGGGLVQPGGSLRLSCAASGFNIKDYYIHWVRQAPGKGLEWVAWIDPENGDTEFVPKFQGRATISADTSKNTAYLQMNSLRAEDTAVYYCKTGGFWGQGTLVTVSS
notes: also called parental diabody; 2B3 diabody
